Data published in paper PMC5063967, “EIN2-dependent regulation of acetylation of histone H3K14 and non-canonical histone H3K23 in ethylene signalling” (Nature Communications, 2016).

Biological target: T1, MBP-tagged EIN3 purified from E. coli (Arabidopsis, UniProt O24606 1-628)
T1 construct: also called ETHYLENE … 3; source: E. coli, purified
T1 sequence (looked up): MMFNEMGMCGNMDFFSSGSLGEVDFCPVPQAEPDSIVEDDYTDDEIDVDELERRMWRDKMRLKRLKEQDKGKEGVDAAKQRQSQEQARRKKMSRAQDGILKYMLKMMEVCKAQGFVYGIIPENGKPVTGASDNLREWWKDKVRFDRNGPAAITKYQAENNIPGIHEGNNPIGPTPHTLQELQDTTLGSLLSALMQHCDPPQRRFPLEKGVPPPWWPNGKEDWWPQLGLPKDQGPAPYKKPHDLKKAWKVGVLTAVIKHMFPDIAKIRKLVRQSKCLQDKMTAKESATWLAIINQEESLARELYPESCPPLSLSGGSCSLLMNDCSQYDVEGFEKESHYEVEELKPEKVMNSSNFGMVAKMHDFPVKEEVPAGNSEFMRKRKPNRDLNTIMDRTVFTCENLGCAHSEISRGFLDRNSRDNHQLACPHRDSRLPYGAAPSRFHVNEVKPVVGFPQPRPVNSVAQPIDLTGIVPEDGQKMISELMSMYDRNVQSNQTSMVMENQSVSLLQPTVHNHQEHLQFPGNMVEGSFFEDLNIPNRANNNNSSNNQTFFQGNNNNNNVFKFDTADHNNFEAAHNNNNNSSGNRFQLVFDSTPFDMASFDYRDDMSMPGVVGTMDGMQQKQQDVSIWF
Test: pull-down; in vitro GST pull-down; GST-tagged ENAP1 and MBP-tagged EIN3 purified from E. coli
Details: both partners purified

B1: GST-ENAP1, full length, purified from E. coli (natural protein, Arabidopsis, UniProt Q8VZI9 1-249, looked up)
chain: METTPETQSKTHRLPAGREDWWSEDATATLIEAWGDRYVNLNRGNLRQNDWKEVADAVNSSHGNGRPKTDVQCKNRIDTLKKKYKTEKAKPLSNWCFFDRLDFLIGPVMKKSSGAVVKSALMNPNLNPTGSKSTGSSLDDDDDDDDDDEEDDDDAGDWGFVVRKHRKVEDVDSSEGSAFRELARSILKLGEAFERIEGKKQQMMIELEKQRMEVAKELELQRMNMLMEMQLELEKSKLGKRRAASGKKL
notes: ENAP1, encoded by at3g11100, Arabidopsis, full length; The methods of the pull-down name the fusion protein 'GST-CD3'; also called GST-labelled ENAP1; GST-tagged ENAP1; source: E. coli, purified (glutathione Sepharose 4B)
- binding result: binds
